Measurements from patent publication US6403087.

Tests used:
[1] = molecular target: surface TNF receptors on HT29 cells; experiment: cell-based or functional assay
[2] = molecular target: murine surface LT ligand on PMA-activated TIMI-4 cells (mouse) (UniProt P09225); experiment: FACS on TIMI-4 cells; mAb at 0.01 µg/ml preincubated, washed, then 1 µg/ml mLT-β-R-Fc
[3] = molecular target: murine surface LT ligand on PMA-activated TIMI-4 cells (mouse) (UniProt P09225); experiment: FACS on TIMI-4 cells; mAb at 0.3 µg/ml preincubated, washed, then 1 µg/ml mLT-β-R-Fc
[4] = molecular target: murine surface LT ligand on PMA-activated TIMI-4 cells (mouse) (UniProt P09225); experiment: FACS on TIMI-4 cells; mAb at 0.1 µg/ml preincubated, washed, then 1 µg/ml mLT-β-R-Fc
[5] = molecular target: murine surface LT ligand on PMA-activated TIMI-4 cells (mouse) (UniProt P09225); experiment: FACS on TIMI-4 cells; mAb at 0.03 µg/ml preincubated, washed, then 1 µg/ml mLT-β-R-Fc
[6] = molecular target: murine surface LT ligand on PMA-activated TIMI-4 cells (mouse) (UniProt P09225); experiment: FACS on TIMI-4 cells; mAb at 100.0 µg/ml preincubated, washed, then 1 µg/ml mLT-β-R-Fc
[7] = molecular target: murine surface LT ligand on PMA-activated TIMI-4 cells (mouse) (UniProt P09225); experiment: FACS on TIMI-4 cells; mAb at 30.0 µg/ml preincubated, washed, then 1 µg/ml mLT-β-R-Fc
[8] = molecular target: murine surface LT ligand on PMA-activated TIMI-4 cells (mouse) (UniProt P09225); experiment: FACS on TIMI-4 cells; mAb at 10.0 µg/ml preincubated, washed, then 1 µg/ml mLT-β-R-Fc
[9] = molecular target: murine surface LT ligand on PMA-activated TIMI-4 cells (mouse) (UniProt P09225); experiment: FACS on TIMI-4 cells; mAb at 1.0 µg/ml preincubated, washed, then 1 µg/ml mLT-β-R-Fc
[10] = molecular target: murine surface LT ligand on PMA-activated TIMI-4 cells (mouse) (UniProt P09225); experiment: FACS on TIMI-4 cells; mAb at 3.0 µg/ml preincubated, washed, then 1 µg/ml mLT-β-R-Fc

Chain of murine surface LT ligand on PMA-activated TIMI-4 cells (mouse) (P09225 34-202, chain 1 of 2): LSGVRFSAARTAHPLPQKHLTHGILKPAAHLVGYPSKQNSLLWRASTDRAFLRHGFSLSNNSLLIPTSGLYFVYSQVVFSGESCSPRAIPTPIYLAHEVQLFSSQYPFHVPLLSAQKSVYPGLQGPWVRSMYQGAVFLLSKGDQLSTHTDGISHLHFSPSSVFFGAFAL
Chain of murine surface LT ligand on PMA-activated TIMI-4 cells (mouse) (P41155 whole entry, chain 2 of 2, further chain): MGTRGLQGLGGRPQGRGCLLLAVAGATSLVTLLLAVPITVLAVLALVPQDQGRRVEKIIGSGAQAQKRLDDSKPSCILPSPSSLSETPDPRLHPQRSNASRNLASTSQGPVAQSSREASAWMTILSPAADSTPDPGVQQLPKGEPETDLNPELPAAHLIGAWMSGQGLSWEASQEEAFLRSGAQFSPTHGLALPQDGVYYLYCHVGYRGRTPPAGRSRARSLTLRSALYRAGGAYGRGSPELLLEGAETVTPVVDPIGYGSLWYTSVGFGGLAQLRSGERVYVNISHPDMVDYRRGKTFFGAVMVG
Chain of hTNF (P01375 77-233 limits assumed): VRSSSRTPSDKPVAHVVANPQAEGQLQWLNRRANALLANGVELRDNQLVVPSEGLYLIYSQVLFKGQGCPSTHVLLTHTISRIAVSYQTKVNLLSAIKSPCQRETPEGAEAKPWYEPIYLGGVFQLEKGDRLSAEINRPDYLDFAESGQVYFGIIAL

Row | Substance | Concentration of Cytotoxic Agent (ng/ml) Resulting in 50% Growth Inhibition of HT29 cells, in the presence of 5 µg/ml hu-IgG control [1] [ng/mL] | % Inh (Percent Inhibition) of mLT-β-R-Fc binding [2] [%] | MFCI (Mean Fluorescence Channel No.) of bound mLT-β-R-Fc [2] [channel no.] | % Inh (Percent Inhibition) of mLT-β-R-Fc binding [3] [%] | MFCI (Mean Fluorescence Channel No.) of bound mLT-β-R-Fc [3] [channel no.] | % Inh (Percent Inhibition) of mLT-β-R-Fc binding [4] [%] | MFCI (Mean Fluorescence Channel No.) of bound mLT-β-R-Fc [4] [channel no.] | % Inh (Percent Inhibition) of mLT-β-R-Fc binding [5] [%] | MFCI (Mean Fluorescence Channel No.) of bound mLT-β-R-Fc [5] [channel no.] | % Inh (Percent Inhibition) of mLT-β-R-Fc binding [6] [%] | MFCI (Mean Fluorescence Channel No.) of bound mLT-β-R-Fc [6] [channel no.] | % Inh (Percent Inhibition) of mLT-β-R-Fc binding [7] [%] | MFCI (Mean Fluorescence Channel No.) of bound mLT-β-R-Fc [7] [channel no.] | % Inh (Percent Inhibition) of mLT-β-R-Fc binding [8] [%] | MFCI (Mean Fluorescence Channel No.) of bound mLT-β-R-Fc [8] [channel no.] | % Inh (Percent Inhibition) of mLT-β-R-Fc binding [9] [%] | MFCI (Mean Fluorescence Channel No.) of bound mLT-β-R-Fc [9] [channel no.] | % Inh (Percent Inhibition) of mLT-β-R-Fc binding [10] [%] | MFCI (Mean Fluorescence Channel No.) of bound mLT-β-R-Fc [10] [channel no.]
1 | hLT-α (from UniProt P01374 35-205) (ligand) | 3 | – | – | – | – | – | – | – | – | – | – | – | – | – | – | – | – | – | –
2 | hTNF (from UniProt P01375 77-233) (ligand) | 0.08 | – | – | – | – | – | – | – | – | – | – | – | – | – | – | – | – | – | –
3 | hamster anti-mLT-α mAb AF.B3 (antibody) | – | 2 | 84 | 2 | 84 | 0 | 86 | 0 | 86 | 0 | 92 | 0 | 94 | 0 | 95 | 0 | 89 | 0 | 88
4 | hamster anti-mouse LT-α/β mAb BB.F6 (antibody) | – | 18 | 71 | 62 | 36 | 44 | 51 | 23 | 67 | 98 | 8 | 95 | 10 | 94 | 11 | 71 | 29 | 86 | 17
